Residue numbers refer to the chain shown, from its start. Numbers in names are those of the source. Where “and” joins values, the source holds several entries; their conditions need not be identical. Equal values may be shown once. Read-outs that look alike come from different tables or passages of the source.
Key:
[1] = test system: T1, Ac-RRVR-AMC
T1 sequence: RRVR

[2] = test system: extracellular domain of VEGF-R2 (Flk1) fused to the Fc domain of mouse IgG
[3] = target: T2, Ac-IEFD-AMC; assay: Michaelis-Menten kinetics of fluorogenic tetrapeptide hydrolysis
T2 chain: XIEFDX

[4] = target: T3, Ac-IETD-AMC; assay: as above
T3 chain: XIETDX

[5] = target: T4, Ac-IEPD-AMC; assay: as above
T4 chain: XIEPDX

[6] = target: T5, Ac-LEFD-AMC; assay: as above
T5 chain: XLEFDX

[7] = target: T6, Ac-IKPD-AMC; assay: as above
T6 chain: XIKPDX

[8] = target: T7, Ac-LEPD-AMC; assay: as above
T7 chain: XLEPDX

[9] = target: T2, Ac-IEFD-AMC
[10] = target: T3, Ac-IETD-AMC
[11] = target: T4, Ac-IEPD-AMC
[12] = target: T5, Ac-LEFD-AMC
[13] = target: T6, Ac-IKPD-AMC
[14] = target: T7, Ac-LEPD-AMC
[15] = target: T8, Ac-IAPD-ACC
T8 chain: XIAPDX

[16] = target: T9, extracellular domain of VEGF-R2 (Flk1) fused to the Fc domain of mouse IgG
T9 chain: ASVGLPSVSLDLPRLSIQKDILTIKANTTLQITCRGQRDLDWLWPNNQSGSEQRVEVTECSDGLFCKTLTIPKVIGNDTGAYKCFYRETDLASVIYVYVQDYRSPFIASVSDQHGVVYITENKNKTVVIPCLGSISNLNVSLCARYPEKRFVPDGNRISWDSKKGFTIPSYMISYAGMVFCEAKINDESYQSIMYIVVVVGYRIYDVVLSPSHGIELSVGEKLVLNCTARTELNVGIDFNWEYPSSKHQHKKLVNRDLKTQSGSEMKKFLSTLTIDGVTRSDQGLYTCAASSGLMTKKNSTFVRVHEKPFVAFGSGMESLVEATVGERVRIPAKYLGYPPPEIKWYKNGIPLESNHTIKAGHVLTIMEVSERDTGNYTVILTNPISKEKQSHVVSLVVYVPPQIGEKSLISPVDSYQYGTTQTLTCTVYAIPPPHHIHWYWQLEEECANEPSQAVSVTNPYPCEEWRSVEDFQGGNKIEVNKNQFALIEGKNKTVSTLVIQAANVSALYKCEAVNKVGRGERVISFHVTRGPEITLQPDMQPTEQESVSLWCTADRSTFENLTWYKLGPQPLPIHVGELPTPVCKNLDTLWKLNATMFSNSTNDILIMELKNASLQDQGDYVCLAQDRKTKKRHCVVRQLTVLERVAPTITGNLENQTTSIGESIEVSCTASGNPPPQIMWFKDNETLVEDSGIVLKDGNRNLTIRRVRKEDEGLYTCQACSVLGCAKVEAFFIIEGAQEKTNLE

## MT-SP1 mutein CB159 (F99I/L172D/Q175D)
[1]
  kcat/Km (specificity constant): cut the Ac-RRVR-AMC substrate at 2.2 and 2.3×10^5 M^-1s^-1, respectively
  preference of RRVR over RQAR substrate (ratio of kcat/Km): prefer RRVR to RQAR by greater than 8 fold

## granzyme B mutein CB05 (I99A/N218A/K172D)
[2]
  cleavage of purified VEGFR2-Fc (SDS-PAGE): The purified VEGFR2-Fc is efficiently cleaved by wild-type and mutant granzyme B ... None of the protease variants (wild-type or mutant) cleave the Fc domain
  in vitro cleavage of soluble Flk1-Fc (gel, FIG. 10): Wild-type granzyme B and the listed muteins cleave the VEGFR-Fc receptor

## granzyme B mutein CB07 (I99A/N218A/Y174D)
[2]
  cleavage of purified VEGFR2-Fc (SDS-PAGE): The purified VEGFR2-Fc is efficiently cleaved by wild-type and mutant granzyme B ... None of the protease variants (wild-type or mutant) cleave the Fc domain
  in vitro cleavage of soluble Flk1-Fc (gel, FIG. 10): Wild-type granzyme B and the listed muteins cleave the VEGFR-Fc receptor

## granzyme B mutein CB10 (I99A/N218A/R192M)
[2]
  cleavage of purified VEGFR2-Fc (SDS-PAGE): The purified VEGFR2-Fc is efficiently cleaved by wild-type and mutant granzyme B ... None of the protease variants (wild-type or mutant) cleave the Fc domain
  in vitro cleavage of soluble Flk1-Fc (gel, FIG. 10): Wild-type granzyme B and the listed muteins cleave the VEGFR-Fc receptor

## granzyme B mutein CB02 (I99A/N218A/L171E)
[2]
  cleavage of purified VEGFR2-Fc (SDS-PAGE): The purified VEGFR2-Fc is efficiently cleaved by wild-type and mutant granzyme B ... None of the protease variants (wild-type or mutant) cleave the Fc domain
  in vitro cleavage of soluble Flk1-Fc (gel, FIG. 10): Wild-type granzyme B and the listed muteins cleave the VEGFR-Fc receptor

## MT-SP1 mutein CB155 (Y146D/K224F)
[1]
  kcat/Km (specificity constant): cut the Ac-RRVR-AMC substrate at 2.2 and 2.3×10^5 M^-1s^-1, respectively

## MT-SP1 mutein CB18 (L172D)
[2]
  cleavage of purified VEGFR2-Fc (SDS-PAGE): The mutant L172D cleaves full-length VEGFR2 but at a reduced rate compared to the wild-type

## MT-SP1 mutant N175D
[2]
  cleavage of purified VEGFR2-Fc (SDS-PAGE): Several mutants (N175D and D217F) cleave the receptor with higher efficiency than wild-type

## MT-SP1 mutant D217F
[2]
  cleavage of purified VEGFR2-Fc (SDS-PAGE): Several mutants (N175D and D217F) cleave the receptor with higher efficiency than wild-type

## granzyme B mutein CB06 (I99A/N218A/Y174E)
[2]
  cleavage of purified VEGFR2-Fc (SDS-PAGE): The purified VEGFR2-Fc is efficiently cleaved by wild-type and mutant granzyme B ... None of the protease variants (wild-type or mutant) cleave the Fc domain
  in vitro cleavage of soluble Flk1-Fc (gel, FIG. 10): Wild-type granzyme B and the listed muteins cleave the VEGFR-Fc receptor

B1: wild-type rat granzyme B (protein)
chain: IIGGHEAKPHSRPYMAYLQIMDEYSGSKKCGGFLIREDFVLTAAHCSGSKINVTLGAHNIKEQEKMQQIIPVVKIIPHPAYNSKTISNDIMLLKLKSKAKRSSAVKPLNLPRRNVKVKPGDVCYVAGWGKLGPMGKYSDTLQEVELTVQEDQKCESYLKNYFDKANEICAGDPKIKRASFRGDSGGPLVCKKVAAGIVSYGQNDGSTPRAFTKVSTFLSWIKKTMKK
[3]
  Km: 150 µM and 153 µM
[4]
  Km: 250 µM
[5]
  Km: 370 µM
[6]
  Km: 600 µM
[7]
  Km: 1500 µM and 1600 µM
[8]
  Km: 1100 µM
[9]
  Kcat: 0.15 s⁻¹
  Kcat/Km: 1000 M⁻¹ s⁻¹
  kcat: 0.15 s⁻¹ and 0.154 s⁻¹
  kcat/Km: 1000 M⁻¹ s⁻¹
  ΔΔGT^‡: 0.71 kcal/mol
[10]
  Kcat: 0.39 s⁻¹
  Kcat/Km: 1600 M⁻¹ s⁻¹
[11]
  Kcat: 1.2 s⁻¹
  Kcat/Km: 3300 M⁻¹ s⁻¹
  kcat: 1.2 s⁻¹
  kcat/Km: 3300 M⁻¹ s⁻¹
  ΔΔGT^‡: 0 kcal/mol
[12]
  kcat: 0.0087 s⁻¹
  kcat/Km: 14 M⁻¹ s⁻¹
  ΔΔGT^‡: 3.26 kcal/mol
[13]
  Kcat: 0.15 s⁻¹
  Kcat/Km: 99 M⁻¹ s⁻¹
  kcat: 0.15 s⁻¹
  kcat/Km: 99 M⁻¹ s⁻¹
[14]
  Kcat: 0.096 s⁻¹
  Kcat/Km: 87 M⁻¹ s⁻¹
  kcat: 0.096 s⁻¹
  kcat/Km: 88 M⁻¹ s⁻¹
  ΔΔGT^‡: 2.18 kcal/mol
[15]
  Kcat/Km: 110 M⁻¹ s⁻¹
  kcat/Km: 110 M⁻¹ s⁻¹
[16]
  cleavage of purified VEGFR2-Fc (SDS-PAGE): The purified VEGFR2-Fc is efficiently cleaved by wild-type and mutant granzyme B ... None of the protease variants (wild-type or mutant) cleave the Fc domain
  in vitro cleavage of soluble Flk1-Fc (gel, FIG. 10): Wild-type granzyme B and the listed muteins cleave the VEGFR-Fc receptor

B2: rat granzyme B I99A (protein)
chain: IIGGHEAKPHSRPYMAYLQIMDEYSGSKKCGGFLIREDFVLTAAHCSGSKINVTLGAHNIKEQEKMQQIIPVVKIIPHPAYNSKTASNDIMLLKLKSKAKRSSAVKPLNLPRRNVKVKPGDVCYVAGWGKLGPMGKYSDTLQEVELTVQEDQKCESYLKNYFDKANEICAGDPKIKRASFRGDSGGPLVCKKVAAGIVSYGQNDGSTPRAFTKVSTFLSWIKKTMKKS
[3]
  Km: 880 µM
[5]
  Km: 2500 µM
[9]
  kcat: 0.24 s⁻¹
  kcat/Km: 270 M⁻¹ s⁻¹
[11]
  kcat: 0.14 s⁻¹
  kcat/Km: 57 M⁻¹ s⁻¹

B3: rat granzyme B Y174A (protein)
chain: B2 chain with A86I, Y161A
[5]
  Km: 1000 µM
[11]
  kcat: 0.87 s⁻¹
  kcat/Km: 470 M⁻¹ s⁻¹

B4: rat granzyme B N218A/R192E (protein)
chain: B2 chain with A86I, R181E, N203A
[5]
  Km: > 2000 µM
[7]
  Km: > 2000 µM
[11]
  Kcat/Km: 10 M⁻¹ s⁻¹
[13]
  Kcat/Km: 73 M⁻¹ s⁻¹
[15]
  Kcat/Km: 15 M⁻¹ s⁻¹

B5: rat granzyme B N218T (protein)
chain: B2 chain with A86I, N203T
[5]
  Km: 580 µM
[7]
  Km: 1800 µM
[11]
  Kcat: 3.6 s⁻¹
  Kcat/Km: 6200 M⁻¹ s⁻¹
[13]
  Kcat: 1.1 s⁻¹
  Kcat/Km: 600 M⁻¹ s⁻¹

B6: rat granzyme B I99F (protein)
chain: B2 chain with A86F
[4]
  Km: 1900 µM
[5]
  Km: 500 µM
[9]
  Kcat/Km: 410 M⁻¹ s⁻¹
[10]
  Kcat: 0.3 s⁻¹
  Kcat/Km: 153 M⁻¹ s⁻¹
[11]
  Kcat: 0.56 s⁻¹
  Kcat/Km: 510 M⁻¹ s⁻¹
  specificity constant (kcat/Km): 1100 M⁻¹ s⁻¹
[14]
  Kcat/Km: 200 M⁻¹ s⁻¹

B7: rat granzyme B I99R (protein)
chain: B2 chain with A86R
[3]
  Km: 930 µM and The Km of the P2-Phe substrate (980 µM)
[4]
  Km: 2000 µM
[5]
  Km: 1800 µM
[9]
  Kcat: 0.47 s⁻¹
  Kcat/Km: 505 M⁻¹ s⁻¹
[10]
  Kcat: 0.3 s⁻¹
  Kcat/Km: 150 M⁻¹ s⁻¹
[11]
  Kcat: 0.59 s⁻¹
  Kcat/Km: 330 M⁻¹ s⁻¹
  kcat: kcat is 0.47 s^-1 and 0.55 s^-1, respectively
[14]
  Kcat/Km: 12 M⁻¹ s⁻¹

B8: rat granzyme B I99A/N218A (protein)
chain: B2 chain with N203A
[3]
  Km: 890 µM
[5]
  Km: 2700 µM
[6]
  Km: 1300 µM
[8]
  Km: > 2000 µM
[9]
  kcat: 0.26 s⁻¹
  kcat/Km: 290 M⁻¹ s⁻¹
  ΔΔGT^‡: -1.33 kcal/mol
[11]
  kcat: 0.087 s⁻¹
  kcat/Km: 32 M⁻¹ s⁻¹
  ΔΔGT^‡: 0 kcal/mol
[12]
  kcat: 0.047 s⁻¹
  kcat/Km: 37 M⁻¹ s⁻¹
  ΔΔGT^‡: -0.09 kcal/mol
[14]
  kcat/Km: 1.3 M⁻¹ s⁻¹
  ΔΔGT^‡: 1.92 kcal/mol
[16]
  cleavage of purified VEGFR2-Fc (SDS-PAGE): The purified VEGFR2-Fc is efficiently cleaved by wild-type and mutant granzyme B ... None of the protease variants (wild-type or mutant) cleave the Fc domain
  in vitro cleavage of soluble Flk1-Fc (gel, FIG. 10): Wild-type granzyme B and the listed muteins cleave the VEGFR-Fc receptor

B9: rat granzyme B N218A (protein)
chain: B2 chain with A86I, N203A
[5]
  Km: 700 µM
[7]
  Km: 1800 µM
[11]
  kcat: 1.6 s⁻¹
  kcat/Km: 2200 M⁻¹ s⁻¹
[13]
  kcat: 0.38 s⁻¹
  kcat/Km: 220 M⁻¹ s⁻¹

B10: rat granzyme B N218A/R192A (protein)
chain: B2 chain with A86I, R181A, N203A
[5]
  Km: 1700 µM
[7]
  Km: > 2000 µM
[11]
  Kcat: 0.16 s⁻¹
  Kcat/Km: 92 M⁻¹ s⁻¹
[13]
  Kcat/Km: 55 M⁻¹ s⁻¹
[15]
  Kcat/Km: 29 M⁻¹ s⁻¹
